Assay results from patent US20250034256A1 (EUCURE BEIJING BIOPHARMA, published 2025).
Substitutions are numbered along the chain they refer to. Numbers in names are those of the source.

T1: mouse PD-1 (mPD-1) on transfected CHO cells (mouse, UniProt Q02242 25-288)
T1 sequence: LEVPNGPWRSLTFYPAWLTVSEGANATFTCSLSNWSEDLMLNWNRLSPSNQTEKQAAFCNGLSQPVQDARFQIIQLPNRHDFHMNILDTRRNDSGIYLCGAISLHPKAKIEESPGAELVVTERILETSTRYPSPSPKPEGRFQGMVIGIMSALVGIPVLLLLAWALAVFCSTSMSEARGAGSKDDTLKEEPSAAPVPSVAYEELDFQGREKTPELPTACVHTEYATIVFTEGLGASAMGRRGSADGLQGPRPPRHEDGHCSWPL

T2: monkey (rhesus macaque) PD-1 (rmPD-1) on transfected CHO cells (rhesus macaque, UniProt Q15116 25-288 (human entry))
T2 construct: also called monkey PD-1
T2 chain: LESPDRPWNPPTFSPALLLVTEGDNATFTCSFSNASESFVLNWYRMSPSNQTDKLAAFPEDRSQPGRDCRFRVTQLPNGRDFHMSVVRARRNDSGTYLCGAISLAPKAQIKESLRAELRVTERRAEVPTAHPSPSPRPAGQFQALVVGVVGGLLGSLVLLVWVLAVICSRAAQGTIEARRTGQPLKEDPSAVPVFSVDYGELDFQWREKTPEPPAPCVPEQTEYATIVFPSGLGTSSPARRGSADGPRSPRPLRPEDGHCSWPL

B1: mouse anti-hPD-1 antibody 25-1A7 (antibody, V domains shown)
VH: EVKLVESGGGLVQPGGSLKLSCAASGFTFSSYSMSWVRQTPEKRLEWVAHISSGGSSTYYPDTVKGRFTISRDNARNTLYLQMSSLKSEDTAMYYCTRQFYYGSSFWYFDVWGAGTTVTVSS
VL: DNVLTQSPVSLAVSLGQRATISCKASQSVDFDGDSYMNWYQQKPGQPPKLLIYAASNLESGIPARFSGSGSGTDFTLNIHPVEEEDAATYYCQQSNEDPPTFGGGTKLEIK
notes: Mouse monoclonal antibody purified from ascites
B2: mouse anti-hPD-1 antibody 18-3F1 (antibody, V domains shown)
VH: QVQLQQSGAELAKPGASVKMSCKASGYTFTSYWMHWVKQRPGQGLEWIGYINPSTGYTEYNQKFKDKATLTADKSSSTAYMQLSSLTSEDSAVYYCARGVRYYFDYWGQGTTLTVSS
VL: DIVMSQSPSSLAVSAGEKVTMSCKSSQSLLNSRTRKNYLAWYQQKPGQSPKLLIYWASTRESGVPDRFTGSGSGTDFTLTISSVQAEDLAVYYCKQSYNLLTFGAGTKLELK
notes: as for B1
B3: mouse anti-hPD-1 antibody 3-6G1 (antibody, V domains shown)
VH: B2 VH with V18L, F29L, S54N, V100T, R101A
VL: B2 VL with L101Q, A105G, L111I
notes: Mouse monoclonal antibody purified from ascites; also called 03-6G1
B4: 1A7-H2K2-IgG4-S228P (antibody, V domains shown)
VH: B1 VH with K3Q, K19R, T40A, E42G, A75S, R76K, S84N, K87R, S88A
VL: DNVLTQSPATLSVSPGERATLSCKASQSVDFDGDSYMNWYQQKPGQPPRLLIYAASNLESGIPARFSGSGPGTDFTLTISSLEPEDFATYYCQQSNEDPPTFGGGTKVEIK
notes: Humanized; human IgG4 constant domains with S228P (EU numbering)
B5: 1A7-H3K2-IgG4-S228P (antibody, V domains shown)
VH: B1 VH with K19R, T40A, E42G, A75S, R76K, S84N, K87R, S88A
VL: B4 VL
notes: as for B4
B6: 1A7-H2K1-IgG4-S228P (antibody, V domains shown)
VH: B1 VH with K3Q, K19R, T40A, E42G, A75S, R76K, S84N, K87R, S88A
VL: B4 VL with V13L
notes: as for B4
B7: 1A7-H3K3-IgG4-S228P (antibody, V domains shown)
VH: B1 VH with K19R, T40A, E42G, A75S, R76K, S84N, K87R, S88A
VL: B4 VL with P71S, L82V
notes: as for B4
B8: 1A7-H1K1-IgG4-S228P (antibody, V domains shown)
VH: EVQLLESGGGLVQPGGSLRLSCAASGFTFSSYSMSWVRQAPGKRLEWVAHISSGGSSTYYPDTVKGRFTISRDNSKNTLYLQMNSLRAEDTAMYYCTRQFYYGSSFWYFDVWGQGTTVTVSS
VL: B4 VL with V13L
notes: as for B4
B9: 1A7-H3K1-IgG4-S228P (antibody, V domains shown)
VH: B8 VH with Q3K, L5V, Q114A
VL: B4 VL with V13L
notes: as for B4
B10: 1A7-H2K3-IgG4-S228P (antibody, V domains shown)
VH: B8 VH with L5V, Q114A
VL: B4 VL with P71S, L82V
notes: as for B4
B11: 1A7-H1K3-IgG4-S228P (antibody, V domains shown)
VH: B8 VH
VL: B4 VL with P71S, L82V
notes: as for B4
B12: 1A7-H1K2-IgG4-S228P (antibody, V domains shown)
VH: B8 VH
VL: B4 VL
notes: as for B4
B13: 3F1-mHvKv-IgG4-S228P (antibody, V domains shown)
VH: B2 VH
VL: B2 VL
notes: Chimeric antibody: mouse 3F1 variable domains, human IgG4 constant domains (CL, CH1, CH2, CH3) with S228P (EU numbering); also called 18-3F1-mHvKv-IgG4-S228P; 3F1-mHyKy-IgG4-S228P
B14: 3F1-H3K2-IgG4-S228P (antibody, V domains shown)
VH: B2 VH with L11V, K67R, K74T, S76T, Q82E, T87R, S91T, T112L
VL: B2 VL with S5T, S9D, A15L, K18R, V19A, T69S, L89V, A105Q
notes: as for B4
B15: 3F1-H3K1-IgG4-S228P (antibody, V domains shown)
VH: B2 VH with L11V, K67R, K74T, S76T, Q82E, T87R, S91T, T112L
VL: B2 VL with S5T, S9D, A15L, K18R, V19A, M21I, T69S, L89V, A105Q
notes: as for B4
B16: 3F1-H4K3-IgG4-S228P (antibody, V domains shown)
VH: B2 VH with L11V, K67R, S76T, Q82E, S91T, T112L
VL: B2 VL with S5T, K18R, T69S, L89V, A105Q
notes: as for B4
B17: 3F1-H1K3-IgG4-S228P (antibody, V domains shown)
VH: QVQLQQSGAEVKKPGASVKMSCKASGYTFTSYWMHWVRQAPGQGLEWIGYINPSTGYTEYNQKFKDRATLTADTSTSTAYMELSSLRSEDTAVYYCARGVRYYFDYWGQGTLVTVSS
VL: B2 VL with S5T, K18R, T69S, L89V, A105Q
notes: as for B4
B18: 3F1-H2K1-IgG4-S228P (antibody, V domains shown)
VH: B17 VH with R38K, A40R, T74K
VL: B2 VL with S5T, S9D, A15L, K18R, V19A, M21I, T69S, L89V, A105Q
notes: as for B4
B19: 3F1-H1K2-IgG4-S228P (antibody, V domains shown)
VH: B17 VH
VL: B2 VL with S5T, S9D, A15L, K18R, V19A, T69S, L89V, A105Q
notes: as for B4
B20: 3F1-H2K3-IgG4-S228P (antibody, V domains shown)
VH: B17 VH with R38K, A40R, T74K
VL: B2 VL with S5T, K18R, T69S, L89V, A105Q
notes: as for B4
B21: 3F1-H4K1-IgG4-S228P (antibody, V domains shown)
VH: B2 VH with L11V, K67R, S76T, Q82E, S91T, T112L
VL: B2 VL with S5T, S9D, A15L, K18R, V19A, M21I, T69S, L89V, A105Q
notes: as for B4
B22: 3F1-H4K2-IgG4-S228P (antibody, V domains shown)
VH: B2 VH with L11V, K67R, S76T, Q82E, S91T, T112L
VL: B2 VL with S5T, S9D, A15L, K18R, V19A, T69S, L89V, A105Q
notes: as for B4
B23: 3F1-H3K3-IgG4-S228P (antibody, V domains shown)
VH: B17 VH with K12A, R38K, A40R, V113L
VL: B2 VL with S5T, K18R, T69S, L89V, A105Q
notes: as for B4
B24: 3F1-H1K1-IgG4-S228P (antibody, V domains shown)
VH: B17 VH
VL: B2 VL with S5T, S9D, A15L, K18R, V19A, M21I, T69S, L89V, A105Q
notes: as for B4
B25: 3F1-H2K2-IgG4-S228P (antibody, V domains shown)
VH: B17 VH with R38K, A40R, T74K
VL: B2 VL with S5T, S9D, A15L, K18R, V19A, T69S, L89V, A105Q
notes: as for B4

These binders were tested against T1, mouse PD-1 (mPD-1) on transfected CHO … (assay: flow cytometry on CHO cells transfected with mouse PD-1).
Method: (§1) 25 μl CHO cells were added to each well.
(§2) After being washed with PBS (1200 rmp, 5 min) twice, 50 μl of FITC labeled anti-mouse IgG Fc antibody (anti-mIgG Fc-FITC) was added into each well 1:500 dilution, followed by incubated at 4° C. for 30 minutes, and then PBS wash (1200 rmp, 5 min). The signals for FITC were determined by flow cytometry.

Row | binding result | Binder
1 | no binding (tested: 1 µg/ml) | B1
2 | no binding (tested: 1 µg/ml) | B2
3 | no binding (tested: 1 µg/ml) | B3

Each binder was assayed against T1, mouse PD-1 (mPD-1) on transfected CHO … (assay: flow cytometry, antibody at 1 µg/ml on CHO cells transfected with mPD-1 (CHO-mPD-1); anti-mIgG Fc-FITC against SSC-H).
Method: as §1, §2

Row | % cells positive for Anti-mouse-IgGFc-FITC [%] | Binder
4 | 0.381 | B1
5 | 1.51 | B2
6 | 0.502 | B3

Molecular target: T2, monkey (rhesus macaque) PD-1 (rmPD-1) …
Test: flow cytometry, antibody at 1 µg/ml on CHO cells transfected with rmPD-1 (CHO-rmPD-1); anti-mIgG Fc-FITC against SSC-H
Method: as §1, §2

Row | % cells positive for Anti-mouse-IgGFc-FITC [%] | Binder
7 | 85 | B1
8 | 63.6 | B2
9 | 64.3 | B3

These binders were tested against T3, Histidine-tagged human PD-1 protein (hPD-1-His) (human, UniProt Q15116 25-170, limits assumed) (assay: SPR (Biacore T200), antibody captured on Protein A chip, hPD-1-His analyte, 1:1 fit).
T3 construct: Soluble analyte in SPR; not shown: histidine tag
T3 sequence (Q15116 25-170 limits assumed): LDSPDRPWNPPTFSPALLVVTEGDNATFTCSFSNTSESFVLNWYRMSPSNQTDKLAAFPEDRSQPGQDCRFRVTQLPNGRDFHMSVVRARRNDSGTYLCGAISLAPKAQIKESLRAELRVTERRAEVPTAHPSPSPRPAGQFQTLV
Method: The binding affinity of the anti-hPD-1 antibodies were measured using surface plasmon resonance (SPR) using Biacore™ (Biacore™, INC, Piscataway N.J.) T200 biosensor equipped with pre-immobilized Protein A sensor chips.
Histidine-tagged human PD-1 proteins (hPD-1-His) at the concentration of 200, 100, 50, 25, 12.5, 6.25, 3.125, 1.5625 nM were then injected at 30 μL/min for 100 seconds. Dissociation was monitored for 400 seconds. The chip was regenerated after the last injection of each titration with Glycine (pH 2.0, 30 μL/min for 12 seconds).
As a person of ordinary skill in the art would understand, the same method with appropriate adjustments for parameters (e.g., antibody concentration) was performed for each tested antibody.

Row | Kd [nM] | koff [s⁻¹] | kon [M⁻¹ s⁻¹] | Binder
10 | 57.8 | 0.00282 | 48800 | B4
11 | 58.2 | 0.0028 | 48100 | B5
12 | 57.3 | 0.0028 | 48900 | B6
13 | 12.9 | 0.00132 | 102000 | B7
14 | 47.9 | 0.00272 | 56800 | B8
15 | 39.9 | 0.00264 | 66200 | B9
16 | 11.9 | 0.00136 | 115000 | B10
17 | 10.1 | 0.00119 | 118000 | B11
18 | 32.1 | 0.00265 | 82600 | B12
19 | 346 | 0.00128 | 3700 | B13
20 | 296 | 0.0015 | 5060 | B14
21 | 395 | 0.00179 | 4530 | B15
22 | 397 | 0.00161 | 4060 | B16
23 | 275 | 0.00132 | 4790 | B17
24 | 422 | 0.00192 | 4550 | B18
25 | 294 | 0.00155 | 5270 | B19
26 | 329 | 0.00145 | 4410 | B20
27 | 460 | 0.00204 | 4420 | B21
28 | 369 | 0.00177 | 4800 | B22
29 | 318 | 0.00139 | 4380 | B23
30 | 376 | 0.00181 | 4810 | B24
31 | 354 | 0.0017 | 4810 | B25
